Data taken from US20260193348A1 (ANTENGENE BIOLOGICS, published 2026).
Substitutions are numbered along the chain they refer to. Names and notes keep the numbering of the source. One block for each binder: values may come before it.

Legend:
[1] = molecular target: T1, GPRC5D (G-protein coupled receptor family C group 5 member D), human, on multiple myeloma cell lines (human, UniProt Q9NZD1 1-345); experiment: cell-based or functional assay
[2] = molecular target: T2, CD3 (Cluster of Differentiation 3 protein), human, on T cells / Jurkat cells (human, UniProt P07766 23-207; P04234 22-171; P09693 23-182); experiment: FACS, Jurkat cells, antibody at 50 µg/ml
T2 construct: whole, on cells; part of the TCR-CD3 complex; also called human CD3
Procedure: (§1) The binding affinities of the generated humanized Fab-scFv-Fab bispecific antibodies were determined by FACS analysis. […] (a) Jurkat cells were washed by Staining Buffer (PBS+1% BSA) in round bottom 96-well plate. [0833] (b) Antibody dilutions and cells were added to each well, incubated at 4 degrees for 1 hour. [0834] (c) Cells were spined down at 300 g for 3 minutes, and the supernatants were discarded. [0835] (d) Cells were washed with Staining Buffer. […] (e) Step (d) was repeated and the cells were incubated for 0.5 hours at 4 degrees with secondary antibody in Staining Buffer. [0837] (f) After incubation, step (d)-(e) were repeated. […] (g) Staining Buffer was added and fluorescence signals were recorded by flow cytometry.

[3] = molecular target: T1, GPRC5D (G-protein coupled receptor …); experiment: cell-based or functional assay; remark: listed apart in the source
[4] = molecular target: T1, GPRC5D (G-protein coupled receptor …); experiment: FACS, MOLP-8 cells
Procedure: as §1
(§2) The binding affinities of the generated humanized Fab-scFv-Fab bispecific antibodies to different multiple myeloma cell lines were evaluated by FACS analysis. The protocol for FACS analysis is identical to that described in Example 3.2, except that different cells were used in this example, i.e., multiple myeloma cell lines (MM.1S, […], L363 and RPMI 8226) were used in this example.

[5] = molecular target: T1, GPRC5D (G-protein coupled receptor …); experiment: FACS, MM.1S cells
Procedure: as §1, §2

T2 sequence (P07766 23-207, chain 1 of 3): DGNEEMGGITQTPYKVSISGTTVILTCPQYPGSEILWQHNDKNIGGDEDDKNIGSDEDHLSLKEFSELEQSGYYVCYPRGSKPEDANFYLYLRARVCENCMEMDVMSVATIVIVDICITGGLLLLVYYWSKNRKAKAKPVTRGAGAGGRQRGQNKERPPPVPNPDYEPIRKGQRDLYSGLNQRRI
T2 sequence (P04234 22-171, chain 2 of 3): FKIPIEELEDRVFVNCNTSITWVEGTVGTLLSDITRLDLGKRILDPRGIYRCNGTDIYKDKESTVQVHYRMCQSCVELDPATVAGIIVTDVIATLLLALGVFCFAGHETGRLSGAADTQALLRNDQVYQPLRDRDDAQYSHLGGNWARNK
T2 sequence (P09693 23-182, chain 3 of 3): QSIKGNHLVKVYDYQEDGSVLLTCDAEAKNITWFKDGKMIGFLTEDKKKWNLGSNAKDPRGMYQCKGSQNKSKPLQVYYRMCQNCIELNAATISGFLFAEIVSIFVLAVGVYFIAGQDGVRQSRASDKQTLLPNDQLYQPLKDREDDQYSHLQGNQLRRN
T1 sequence (Q9NZD1 whole entry): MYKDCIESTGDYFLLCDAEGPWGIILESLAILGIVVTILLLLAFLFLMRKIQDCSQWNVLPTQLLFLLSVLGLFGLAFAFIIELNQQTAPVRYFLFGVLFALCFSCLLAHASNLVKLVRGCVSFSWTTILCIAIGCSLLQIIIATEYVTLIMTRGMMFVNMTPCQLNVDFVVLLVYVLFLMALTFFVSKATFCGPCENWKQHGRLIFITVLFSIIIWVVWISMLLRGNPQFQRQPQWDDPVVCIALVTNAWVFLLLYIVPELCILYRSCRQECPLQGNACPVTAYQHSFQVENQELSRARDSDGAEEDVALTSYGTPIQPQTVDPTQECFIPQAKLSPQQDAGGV

EC50 (nM), luciferase assay, L363 [1]: 0.0525 nM
EC50 (nM), luciferase assay, MM.1S [1]: 0.0506 nM
EC50 (nM), luciferase assay, MOLP-8 [1]: 0.0455 nM
Top (RLU), luciferase assay, L363 [1]: 776 RLU
Top (RLU), luciferase assay, MM.1S [1]: 5840 RLU
Top (RLU), luciferase assay, MOLP-8 [1]: 1060 RLU
MFI (50 µg/ml) [2]: 137 MFI
EC50 [4]: 0.398 nM
Top (MFI) [4]: 952 MFI
EC50 [5]: 8.93 nM
Top (MFI) [5]: 1330 MFI
B1: Bis-40E9-L2H3-Y54G.H (bispecific antibody)
heavy: EVQLVQSGAEVKKPGASVKVSCKASGYTFTSYVIHWVRQAPGQGLEWMGYFNPYNDGTKYNEEFKGRVTLTSDKSTSTAYMELRSLRSDDTAVYYCARGGVRRYFDVWGQGTTVTVSS
heavy (part 1 of 2): B1 heavy
heavy (part 2 of 2): GGGGSGGGGSEVQLVQSGAEVKKPGSSVKVSCKASGYTFSSYVIHWVRQAPGQCLEWMGYINPGNDVIKYNEKFKGRVTLTSDKSTSTAYMELSSLRSEDTAVYYCARDSYYSYDGFAYWGQGTLVTVSSGGGGSGGGGSGGGGSGGGGSEIVLTQSPDFQSVTPKEKVTITCSASSSVSYMHWYQQKPDQSPKRLIYDTSKLASGVPSRFSGSGSGTDFTLTINSLEAEDAATYYCQQWSSNPPTFGCGTKVEIKGGGGSGGGGS
light: DIQMTQSPSSLSASVGDRVTITCRASQDIGSNLNWLQQKPGKAIKRLIYATFGLDSGVPSRFSGSRSGTDFTLTISSLQPEDFATYYCQQYASFPYTFGGGTKVEIK
notes: Fab-scFv-Fab (2+1), LALA; not shown: CH1; CL; CH2-CH3 with L234A, L235A; heavy chain constant region with L234A, L235A
IC50 (nM), T-Cell Dependent Cytotoxicity, MM.1S [3]: 0.00726 nM
IC50 (nM), T-Cell Dependent Cytotoxicity, MOLP-8 [3]: 0.00117 nM
IC50 (nM), T-Cell Dependent Cytotoxicity, RPMI8226 [3]: 0.0453 nM
Top (%), T-Cell Dependent Cytotoxicity, MM.1S [3]: 75.5%
Top (%), T-Cell Dependent Cytotoxicity, MOLP-8 [3]: 68.7%
Top (%), T-Cell Dependent Cytotoxicity, RPMI8226 [3]: 10.4%

EC50 (nM), luciferase assay, L363 [1]: 1.71 nM
EC50 (nM), luciferase assay, MM.1S [1]: 0.0332 nM
EC50 (nM), luciferase assay, MOLP-8 [1]: 0.072 nM
Top (RLU), luciferase assay, L363 [1]: 2760 RLU
Top (RLU), luciferase assay, MM.1S [1]: 1710 RLU
Top (RLU), luciferase assay, MOLP-8 [1]: 150 RLU
MFI (50 µg/ml) [2]: 142 MFI
B2: Bis-40E9-L3H1 (bispecific antibody)
heavy: B1 heavy
heavy (part 1 of 2): B1 heavy
heavy (part 2 of 2): B1 heavy (part 2 of 2) with Y37G, G64Y, L80I, S82A, L196W, F220Y
light: B1 light
notes: as for B1
IC50 (nM), T-Cell Dependent Cytotoxicity, MM.1S [3]: 0.0203 nM
IC50 (nM), T-Cell Dependent Cytotoxicity, MOLP-8 [3]: 0.00244 nM
IC50 (nM), T-Cell Dependent Cytotoxicity, RPMI8226 [3]: 0.292 nM
Top (%), T-Cell Dependent Cytotoxicity, MM.1S [3]: 74.9%
Top (%), T-Cell Dependent Cytotoxicity, MOLP-8 [3]: 68.3%
Top (%), T-Cell Dependent Cytotoxicity, RPMI8226 [3]: 13.6%

EC50 (nM), luciferase assay, L363 [1]: 0.187 nM
EC50 (nM), luciferase assay, MM.1S [1]: 0.268 nM
EC50 (nM), luciferase assay, MOLP-8 [1]: 0.116 nM
EC50 (nM), luciferase assay, RPMI8226 [1]: 1.58 nM
Top (RLU), luciferase assay, L363 [1]: 277 RLU
Top (RLU), luciferase assay, MM.1S [1]: 2910 RLU
Top (RLU), luciferase assay, MOLP-8 [1]: 262 RLU
Top (RLU), luciferase assay, RPMI8226 [1]: 101 RLU
MFI (50 µg/ml) [2]: 114 MFI
B3: Bis-40E9-L2H3-G106A.H (bispecific antibody)
heavy: B1 heavy
heavy (part 1 of 2): B1 heavy
heavy (part 2 of 2): B1 heavy (part 2 of 2) with G64Y, G116A
light: B1 light
notes: as for B1
IC50 (nM), T-Cell Dependent Cytotoxicity, MM.1S [3]: 0.057 nM
IC50 (nM), T-Cell Dependent Cytotoxicity, MOLP-8 [3]: 0.0068 nM
IC50 (nM), T-Cell Dependent Cytotoxicity, RPMI8226 [3]: 4.04 nM
Top (%), T-Cell Dependent Cytotoxicity, MM.1S [3]: 67.4%
Top (%), T-Cell Dependent Cytotoxicity, MOLP-8 [3]: 54.3%
Top (%), T-Cell Dependent Cytotoxicity, RPMI8226 [3]: 5.69%
